Results published in US20230399650.
Numbering of substitutions follows the chain as printed.

Legend:
[1] = tested on: VapBC hetero-octamer, VapB Q12A (VapBA12C) (Shigella sonnei); assay: SPR; conditions: 25 C, 50 mM Tris pH 8.0, 150 mM NaCl; approximate
[2] = tested on: VapBC hetero-octamer, VapB Q12L (VapBL12C, CS14 allele) (Shigella sonnei); assay: SPR; conditions: 25 C, 50 mM Tris pH 8.0, 150 mM NaCl; traces not at equilibrium; methods state chip duplex SH167 annealed with SH181 (SH181 printed is operator site 2 sequence)
[3] = tested on: T1, VapB^A12 (Shigella sonnei VapB, Q12A)
T1 sequence: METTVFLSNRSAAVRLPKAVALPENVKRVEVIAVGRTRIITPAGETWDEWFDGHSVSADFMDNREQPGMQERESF

[4] = tested on: T2, VapB^L12 (VapB of Shigella sonnei CS14, Q12L)
T2 sequence: T1 sequence with A12L

[5] = tested on: T3, VapB^Q12 (Shigella sonnei 53G wild-type VapB antitoxin)
T3 sequence: T1 sequence with A12Q

| Substance | binding signal (fold lower affinity than VapBQ12C) [1] | binding signal (fold lower affinity than VapBQ12C) [2] | degradation of VapB by Lon in the presence of long-chain polyphosphate [3] | degradation of VapB by Lon in the presence of operator DNA or control DNA [3] | degradation of VapB by Lon, in vitro proteolysis with and without ATP, SDS-PAGE [3] | degradation of VapB by Lon, in vitro proteolysis, SDS-PAGE [3] | degradation of VapB by Lon in the presence of long-chain polyphosphate [4] | degradation of VapB by Lon in the presence of operator DNA or control DNA [4] | degradation of VapB by Lon, in vitro proteolysis over four hours, SDS-PAGE [4] | degradation of VapB by Lon, in vitro proteolysis with and without ATP, SDS-PAGE [4] | degradation after 4 hours, in the presence of control DNA [5] | degradation after 4 hours, without DNA [5] | degradation of VapB by Lon in the presence of control DNA [5] | degradation of VapB by Lon in the presence of long-chain polyphosphate [5] | degradation of VapB by Lon in the presence of operator DNA [5] | degradation of VapB by Lon, in vitro proteolysis over four hours, SDS-PAGE [5] | degradation of VapB by Lon, in vitro proteolysis with and without ATP, SDS-PAGE [5] |
| --- | --- | --- | --- | --- | --- | --- | --- | --- | --- | --- | --- | --- | --- | --- | --- | --- | --- |
| ATCATAAACGTATATCCCTTTGACATATCCCG (double strand) [vapBC operator site 1, biotinylated for SPR (SH180 printed)] | 10 | 4 |  |  |  |  |  |  |  |  |  |  |  |  |  |  |  |
| Shigella Lon protease, hexameric (Lon6) |  |  | significantly enhanced Lon degradation of both VapB^L12 and VapB^A12 | neither operator DNA nor control DNA affect Lon degradation of VapB^L12 or VapB^A12 | VapB degradation by Lon protease is ATP dependent | after two hours we observed that VapB^A12 was degraded significantly more than VapB^L12 | significantly enhanced Lon degradation of both VapB^L12 and VapB^A12 | neither operator DNA nor control DNA affect Lon degradation of VapB^L12 or VapB^A12 | no significant difference in the degradation of VapB^Q12 and VapB^L12 by Lon protease over the course of assays | VapB degradation by Lon protease is ATP dependent | 31% vs 55% degradation after 4 hours | 31% vs 55% degradation after 4 hours | significant degradation of VapB^Q12 was observed within two hours | Polyphosphate significantly reduced Lon degradation of VapB^Q12 | virtually no degradation of VapB^Q12 over the course of assays | no significant difference in the degradation of VapB^Q12 and VapB^L12 by Lon protease over the course of assays | VapB degradation by Lon protease is ATP dependent |
